Test results: patent US20220380782A1
Like-named read-outs stand apart in the source and are kept apart here.

Key:
[1] = biological target: RAD21-mAID-Clover (human; arabidopsis) (UniProt O60216)
[2] = biological target: mAID-EGFP-NLS (arabidopsis)
[3] = biological target: mAID-EGFP-NLS (arabidopsis); remark: listed apart in the source
[4] = biological target: mAID-EGFP-NLS (arabidopsis); remark: listed apart in the source

Chain of OsTIR1(WT) (receptor) (chain): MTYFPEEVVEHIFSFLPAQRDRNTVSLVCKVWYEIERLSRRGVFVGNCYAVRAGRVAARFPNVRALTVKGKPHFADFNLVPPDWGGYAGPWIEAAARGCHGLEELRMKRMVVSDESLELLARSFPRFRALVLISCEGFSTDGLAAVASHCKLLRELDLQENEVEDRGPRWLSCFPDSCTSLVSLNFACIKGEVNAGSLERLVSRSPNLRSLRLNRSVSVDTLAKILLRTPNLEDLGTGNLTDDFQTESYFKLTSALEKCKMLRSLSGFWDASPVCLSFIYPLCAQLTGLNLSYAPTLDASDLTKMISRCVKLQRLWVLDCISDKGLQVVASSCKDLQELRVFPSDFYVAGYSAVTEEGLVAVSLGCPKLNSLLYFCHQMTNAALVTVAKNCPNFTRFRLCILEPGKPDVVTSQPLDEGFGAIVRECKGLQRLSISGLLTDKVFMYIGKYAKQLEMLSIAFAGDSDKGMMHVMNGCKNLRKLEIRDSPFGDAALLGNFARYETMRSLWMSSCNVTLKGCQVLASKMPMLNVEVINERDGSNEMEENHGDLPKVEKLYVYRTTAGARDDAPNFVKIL
Chain of RAD21-mAID-Clover (human; arabidopsis) (O60216 other isoform, or with tags, fused parts or gaps): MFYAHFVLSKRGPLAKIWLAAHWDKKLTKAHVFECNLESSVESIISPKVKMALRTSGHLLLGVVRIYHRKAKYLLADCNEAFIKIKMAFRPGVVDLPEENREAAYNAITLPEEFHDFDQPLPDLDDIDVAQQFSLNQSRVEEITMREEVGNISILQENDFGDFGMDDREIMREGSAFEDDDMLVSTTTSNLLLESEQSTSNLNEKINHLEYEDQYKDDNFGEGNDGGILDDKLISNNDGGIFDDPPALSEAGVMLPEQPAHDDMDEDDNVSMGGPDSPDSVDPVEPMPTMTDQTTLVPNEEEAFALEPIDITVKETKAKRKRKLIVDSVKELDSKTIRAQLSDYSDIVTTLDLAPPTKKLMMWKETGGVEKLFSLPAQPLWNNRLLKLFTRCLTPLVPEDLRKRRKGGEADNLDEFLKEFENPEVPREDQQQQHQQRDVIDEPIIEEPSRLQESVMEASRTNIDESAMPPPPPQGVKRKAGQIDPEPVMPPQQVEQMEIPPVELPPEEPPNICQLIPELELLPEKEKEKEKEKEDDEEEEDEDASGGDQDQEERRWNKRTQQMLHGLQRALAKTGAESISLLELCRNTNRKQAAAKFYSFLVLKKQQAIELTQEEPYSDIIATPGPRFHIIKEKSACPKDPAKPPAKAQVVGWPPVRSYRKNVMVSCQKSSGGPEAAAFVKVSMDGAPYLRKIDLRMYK
Chain of OsTIR1(WT) (chain): as the sequence (chain) above

Row | Substance | T1/2 of RAD21-mAC after the addition of a ligand [1] [min] | half-life of the reporter after ligand addition (time course) [2] [min] | DC 50 (concentration of 5-Ph-IAA for 50% degradation of the reporter) [3] [nM] | half-life of the reporter after ligand addition (time course) [4] [min] | DC 50 (concentration of IAA (auxin) for 50% degradation of the reporter) [3] [nM]
1 | OsTIR1(F74G) (receptor) | 11.7 | 62.3 | 0.45 |  | 
2 | OsTIR1(WT) | 26.5 |  |  |  | 
3 | OsTIR1(WT) (receptor) |  |  |  | 147 | 300
